Test results taken from publication PMC5481773 (2017).

target: His-tagged Proliferating Cell Nuclear Antigen (PCNA) (human, UniProt P12004 1-261); experiment: ITC
Sequence (P12004 whole entry): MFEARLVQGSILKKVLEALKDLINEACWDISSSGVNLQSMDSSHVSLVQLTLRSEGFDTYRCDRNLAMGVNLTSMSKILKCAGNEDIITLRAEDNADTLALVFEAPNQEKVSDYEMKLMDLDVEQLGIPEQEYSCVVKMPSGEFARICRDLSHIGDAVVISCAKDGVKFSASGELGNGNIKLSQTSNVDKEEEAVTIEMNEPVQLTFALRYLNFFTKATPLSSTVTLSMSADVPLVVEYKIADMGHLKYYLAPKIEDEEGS

Row | Binder | Kd [µM]
1 | QGSTQGRLDDFFKVT (Exact limits are in the supplement. Window is the 15-mer homologous to ZRANB3 515-529, aligned on Q337. Termini chemistry not stated.) [FEN1 PIP box peptide used for ITC] | 17.3
2 | NTAKKGLIDYYLMPS (Exact limits are in the supplement. Window is the 15-mer homologous to ZRANB3 515-529 (equal lengths stated); the PIP box KGLIDYYL is 421-428 in 715-aa numbering, +25 in the 740-aa entry. Check residues are not named in the paper. Termini chemistry not stated.) [Polι PIP box peptide used for ITC] | 5.45
3 | RKRRQTSMTDFYHSK (Exact limits are in the supplement. Window is the 15-mer homologous to ZRANB3 515-529, aligned on Q144. Check residues are not named in the paper. Termini chemistry not stated.) [p21 PIP box peptide used for ITC] | 0.275
